For data set [1], the target named is T1, Klebsiella sp. 601 MCO (multicopper oxidase) (Klebsiella sp. 601, UniProt B0FMT2).
T1 sequence (B0FMT2 29-536): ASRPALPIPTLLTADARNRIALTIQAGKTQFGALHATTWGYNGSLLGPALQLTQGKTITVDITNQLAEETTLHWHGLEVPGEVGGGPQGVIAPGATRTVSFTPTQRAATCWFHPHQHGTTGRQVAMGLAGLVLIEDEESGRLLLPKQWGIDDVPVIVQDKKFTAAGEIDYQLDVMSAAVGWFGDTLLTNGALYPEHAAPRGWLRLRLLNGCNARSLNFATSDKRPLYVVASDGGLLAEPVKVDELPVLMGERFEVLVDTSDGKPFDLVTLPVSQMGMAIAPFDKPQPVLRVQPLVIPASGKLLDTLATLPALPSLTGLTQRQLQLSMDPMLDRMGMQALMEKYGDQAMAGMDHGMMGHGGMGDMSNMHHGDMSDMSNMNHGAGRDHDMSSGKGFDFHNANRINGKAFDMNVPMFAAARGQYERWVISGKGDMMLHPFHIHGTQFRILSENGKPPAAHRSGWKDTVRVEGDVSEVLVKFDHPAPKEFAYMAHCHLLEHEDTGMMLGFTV
As to the kind of experiment: spectrophotometric oxidation assay, Lineweaver-Burk. Format: biochemical. The settings on record: pH 5.0, 50 mM acetate, 37°C, 0.2 mM CuSO4; read-out: Wild-type. The source says: (§1) spectrophotometric oxidation assay, Lineweaver-Burk on Klebsiella sp. 601 MCO (multicopper oxidase)

The target of data set [2] is Klebsiella sp. 601 MCO (multicopper oxidase) (Klebsiella sp. 601, UniProt B0FMT2, E106F). The settings on record: read-out: E106F; pH 5.0, 50 mM acetate, 37°C, 0.2 mM CuSO4.
Description: as §1

Data set [3] addresses Klebsiella sp. 601 MCO (multicopper oxidase) (Klebsiella sp. 601, UniProt B0FMT2, R361G/M362G/L367G/M368G/E369P/M376K/M379P). The settings on record: read-out: α351-380M; pH 5.0, 50 mM acetate, 37°C, 0.2 mM CuSO4.
Description: as §1

Data set [4] has as its system CCn1c(=NN=c2sc3cc(S(=O)(=O)O)ccc3n2CC)sc2cc(S(=O)(=O)O)ccc21. The data set is described as follows: purified protein. The settings on record: pH 3.6, 50 mM acetic acid-sodium acetate, 37°C, 0.2 mM CuSO4.
Substrate in data set [5]: CCn1c(=NN=c2sc3cc(S(=O)(=O)O)ccc3n2CC)sc2cc(S(=O)(=O)O)ccc21
The data set is described as follows: spectrophotometric oxidation assay, Lineweaver-Burk. As to conditions: pH 3.0, 50 mM acetic acid-sodium acetate, 37°C, 0.2 mM CuSO4, pH 3.0. Format: biochemical, Klebsiella sp. 601.
Description: as §1

Substrate in data set [6]: COc1cc(C=NN=Cc2cc(OC)c(O)c(OC)c2)cc(OC)c1O
Described as above. Type of data set: biochemical, Klebsiella sp. 601. The settings on record: pH 6.8, 50 mM phosphate, 37°C, 0.2 mM CuSO4, pH 6.8.
Description: as §1

We go through four molecules from PMC3123277, “Engineering Klebsiella sp. 601 multicopper oxidase enhances the catalytic efficiency towards phenolic substrates” (BMC Biochemistry, 2011).

As for `COc1cccc(OC)c1O` [DMP], the values for the Km in data set [1], in data set [2] and in data set [3] were 2850 µM, 1180 µM and 639 ± 17 µM, respectively.
For the molecule “Klebsiella sp. 601 MCO (multicopper oxidase) (Klebsiella sp. 601; E106F)”, in data set [4], the Km was 159 ± 1.0 µM and the catalytic efficiency (kcat/Km) (usually the second-order rate constant that governs catalysis at low substrate concentration) worked out at 2.05e+08 M⁻¹ s⁻¹.
In the case of “Klebsiella sp. 601 MCO (multicopper oxidase) (Klebsiella sp. 601; E369P/L367G/M362G/M368G/M376K/M379P/R361G)”, the Km in data set [4] was 284 ± 6.2 µM.

B1: Klebsiella sp. 601 MCO (multicopper oxidase) (Klebsiella sp. 601) (protein)
chain: T1 sequence (B0FMT2 29-536)
Turning to B1, in data set [5], the Km was found to be 539 ± 5.0 µM and the kcat/Km worked out at 1.27e+08 M⁻¹ s⁻¹. In addition, in data set [6], the Km is 11.67 ± 0.2 µM; the kcat (in general, the number of substrate molecules converted per active site and unit of time at saturation) was 10.8 ± 0.1 s⁻¹; the kcat/Km turned out to be 930000 M⁻¹ s⁻¹.
